Results reported in publication PMC5850324, “Interactions between the Hepatitis C Virus Nonstructural 2 Protein and Host Adaptor Proteins 1 and 4 Orchestrate Virus Release” (mBio, 2018).

B1: GLuc2-NS2 (hepatitis C virus nonstructural 2 protein, wild type) [hepatitis C virus (J6/JFH genome)] / GLuc1-tagged μ subunit of the AP-4 complex [not stated] (parent complex)
chain 1: YDASVHGQIGAALLVLITLFTLTPGYKTLLSRFLWWLCYLLTLAEAMVQEWAPPMQVRGGRDGIIWAVAIFCPGVVFDITKWLLAVLGPAYLLKGALTRVPYFVRAHALLRMCTMVRHLAGGRYVQMVLLALGRWTGTYIYDHLTPMSDWAANGLRDLAVAVEPIIFSPMEKKVIVWGAETAACGDILHGLPVSARLGREVLLGPADGYTSKGWSLL
chain 2: MISQFFILSSKGDPLIYKDFRGDSGGRDVAELFYRKLTGLPGDESPVVMHHHGRHFIHIRHSGLYLVVTTSENVSPFSLLELLSRLATLLGDYCGSLGEGTISRNVALVYELLDEVLDYGYVQTTSTEMLRNFIQTEAVVSKPFSLFDLSSVGLFGAETQQSKVAPSSAASRPVLSSRSDQSQKNEVFLDVVERLSVLIASNGSLLKVDVQGEIRLKSFLPSGSEMRIGLTEEFCVGKSELRGYGPGIRVDEVSFHSSVNLDEFESHRILRLQPPQGELTVMRYQLSDDLPSPLPFRLFPSVQWDRGSGRLQVYLKLRCDLLSKSQALNVRLHLPLPRGVVSLSQELSSPEQKAELAEGALRWDLPRVQGGSQLSGLFQMDVPGPPGPPSHGLSTSASPLGLGPASLSFELPRHTCSGLQVRFLRLAFRPCGNANPHKWVRHLSHSDAYVIRI

Variants of: B1
Experiment: PCA (protein-fragment complementation assay); parent: 1; read off a plot

Variant	ratio to parent
chain 1 L216A	~0.56
chain 1 D207A	~0.6
chain 1 L202A	~0.57
chain 1 L217A	~0.52
chain 1 L203A	~0.62
chain 1 E200A	~1
